The source of these data is patent publication US20260152555A1 (HUAHUI HEALTH, published 2026).

In general, IC50 refers to the concentration that gives 50% inhibition. As a reminder, the Kd is the constant that tells how readily two partners part at equilibrium. Low values mean a tighter complex, high ones a looser complex. The term koff denotes the first-order rate constant of dissociation. Read a high koff as a short-lived complex. Broadly, the kon is a measure of how fast the partners come together. A high value points to faster complex formation.

The target of experiment [1] is T1, human CD112R, full length, expressed on cells (YTS-hCD112R; Jurkat-NFAT-luc-hCD112R) (human, UniProt Q6DKI7 42-326).
T1 construct: whole, on cells; also called PVRIG; YTS-hCD112R cells
T1 sequence (looked up): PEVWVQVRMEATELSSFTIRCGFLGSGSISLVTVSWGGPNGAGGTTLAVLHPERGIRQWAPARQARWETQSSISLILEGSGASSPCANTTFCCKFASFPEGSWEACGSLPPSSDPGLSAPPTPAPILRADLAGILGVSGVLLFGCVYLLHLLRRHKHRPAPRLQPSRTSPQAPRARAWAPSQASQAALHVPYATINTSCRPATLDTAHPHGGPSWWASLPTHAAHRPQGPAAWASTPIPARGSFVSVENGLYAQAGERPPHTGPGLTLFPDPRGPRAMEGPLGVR
In words: FACS-based competition on YTS-hCD112R cells, competitor hCD112-ECD-hFc. An excerpt:
(§1) Then cells were washed three times with PBS containing 0.5% BSA. Ligands binding to cells were detected by adding goat anti-human IgG-FITC Ab (Pierce-Thermo Fisher Scientific).

The target in experiment [2] is T1, human CD112R, full length, expressed on …. In words: FACS competition on YTS-hCD112R cells against hCD112-ECD-hFc, ligand detected with goat anti-human IgG-FITC.
Text: as §1

The target in experiment [3] is T2, hCD112R-ECD-His6-Avi (human, UniProt Q6DKI7 42-172, biotinylated (Avi tag) in the ELISA assays).
T2 construct: range 42-172; Expressed in HEK 293F cells; Analyte in SPR, and captured on streptavidin in ELISA; also called biotinylated hCD112R-ECD-His6-Avi; not shown: C-terminal His6-Avi tag
T2 sequence (looked up): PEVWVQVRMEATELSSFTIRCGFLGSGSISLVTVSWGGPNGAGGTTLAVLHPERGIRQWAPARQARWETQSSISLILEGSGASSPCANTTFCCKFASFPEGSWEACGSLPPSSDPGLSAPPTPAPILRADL
In words: SPR (Biacore T200), multi-cycle, 733-mIgG2a captured by Protein A/G, hCD112R-ECD-His6-Avi as analyte, 1:1 Langmuir model. As for the experimental part: (§2) Protein A/G (Thermo Fisher) was covalently attached to surfaces of a CM5 sensor chip using an amine coupling kit (GE Healthcare). […] Binding kinetics were evaluated using a 1:1 Langmuir binding model. The association rates (ka), dissociation rates (kd), and affinity constants (KD) were calculated using Biacore T200 evaluation software.
(In general: SPR reads the build-up and loss of mass on a sensor chip optically.)

In experiment [4] the target is T2, hCD112R-ECD-His6-Avi. The experiment in a line: SPR (Biacore T200), multi-cycle; 733-mIgG2a captured on Protein A/G, hCD112R-ECD-His6-Avi injected; 1:1 Langmuir. As for the experimental part: as §2
Experiment [5] deals with T2, hCD112R-ECD-His6-Avi. The experiment in a line: SPR (Biacore T200), multi-cycle; 733-mIgG2a captured on Protein A/G, hCD112R-ECD-His6-Avi injected; 1:1 Langmuir (the text prints the rounded 0.2 nM). The protocol:
as §2

Experiment [6] has as its target human CD112R, full length, expressed on cells (YTS-hCD112R; Jurkat-NFAT-luc-hCD112R) (human) (UniProt Q6DKI7). The experiment in a line: cell-based or functional assay.
Experiment [7] deals with T3, hCD112-ECD-hFc (extracellular domain of hCD112 fused to the Fc domain of human IgG1) (human, UniProt Q92692 32-360).
T3 construct: extracellular domain; also called hCD112 ligand; not shown: Fc domain of human IgG1
T3 sequence (looked up): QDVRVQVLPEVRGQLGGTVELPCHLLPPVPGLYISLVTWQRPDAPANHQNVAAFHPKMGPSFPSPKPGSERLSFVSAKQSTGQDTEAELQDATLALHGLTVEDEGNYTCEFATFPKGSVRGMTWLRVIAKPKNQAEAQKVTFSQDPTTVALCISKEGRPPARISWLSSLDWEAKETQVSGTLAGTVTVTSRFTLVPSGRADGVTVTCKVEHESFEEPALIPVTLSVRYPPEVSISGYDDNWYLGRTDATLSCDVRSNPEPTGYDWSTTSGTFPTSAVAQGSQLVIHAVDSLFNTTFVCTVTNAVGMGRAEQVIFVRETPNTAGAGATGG
In words: SPR (Biacore T200), single injection; hCD112R-ECD-mFc variant captured on anti-mFc Ab, hCD112-ECD-hFc injected. As for the experimental part:
(§3) Kinetic analyses of the bindings of WT or mutated hCD112R-ECD-mFc proteins to H733 and hCD112-ECD were performed on a Biacore T200 instrument (Biacore, GE Healthcare). For the single-cycle SPR analysis, anti-mFc Ab (Thermo Fisher) was covalently attached to surfaces of a CM5 sensor chip using an amine coupling kit (GE Healthcare). WT or mutated hCD112R-ECD mFc fusion proteins were captured on the chip and H733-hIgG4 or hCD112-ECD-hFc were then injected. For the multi-cycle SPR analysis, anti-hFc Ab (Thermo Fisher) was covalently attached to surfaces of a CM5 sensor chip using an amine coupling kit (GE Healthcare). H733-hIgG4 or hCD112-ECD-hFc protein was captured on the chip and 2-fold serially diluted WT or mutated hCD112R-ECD-mFc proteins (3.125-100 nM) were then injected. Binding kinetics were evaluated using a 1:1 Langmuir binding model. The association rates (ka), dissociation rates (kd), and affinity constants (KD) were calculated using Biacore T200 evaluation software.

For experiment [8], the target named is T3, hCD112-ECD-hFc (extracellular domain of …). In words: SPR (Biacore T200), multi-cycle; hCD112-ECD-hFc captured on anti-hFc Ab, hCD112R-ECD-mFc variant injected [Cont') C]. As for the experimental part:
as §3

For experiment [9] the target is unchanged. In words: SPR (Biacore T200), multi-cycle; hCD112-ECD-hFc captured on anti-hFc Ab, hCD112R-ECD-mFc WT injected (3.125-100 nM); 1:1 Langmuir [Cont') C]. The protocol: as §3
The target is the same in experiment [10]. In words: SPR (Biacore T200), multi-cycle; hCD112-ECD-hFc captured on anti-hFc Ab, hCD112R-ECD-mFc variant injected (3.125-100 nM); 1:1 Langmuir [Cont') C]. The protocol: as §3

B1: anti-hCD112R mAb 733 (733-mIgG2a) (antibody, V domains shown)
VH: QVQLQQSGAELVRPGTSVKVSCKASGYAFTNYLIEWLKQRPGQGLEWIGVINPGHGFTNYNEKFKGKATLTADKSSSTAYMQLSSLTSDDSAVYFCARGEWDWYFDVWGAGTTVTVSS
VL: DIVMTQSQKFMSTSVGDRVSITCKASQNVGTAVAWYQQKPGQSPKLLIYSTSNRYTGVPDRFTGSGSGTDFTLTISNLQSEDLADYFCQQCSSYPFTFGSGTKLEIK
notes: VH and VL were cloned onto the constant regions of mouse IgG2a heavy and light chains (full-length mIgG2a, made in HEK 293F)
On to B1, for which the IC50 in [1] came out at 0.29 µg/mL. The “IC50 (read off the curve)” value in [2] is about 2 µg/mL. This molecule also registered a Kd in experiment [3] of 0.2 nM. In experiment [4], this molecule had a koff of 0.000888 s⁻¹ and a kon of 4.49e+06 M⁻¹ s⁻¹. For the same molecule, in experiment [5], binding was put at a Kd of 0.198 nM.

B2: COM701 (humanized anti-hCD112R Ab developed by the Compugen Company, hIgG4) (antibody, from another filing, V domains shown)
VH: QVQLVQSGAEVKKPGASVKVSCKASGYTFTDYNINWVRQAPGQGLEWMGYIYPYIGGSGYAQKFQGRVTMTRDTSTSTVYMELSSLRSEDTAVYYCAREDKTARNAMDYWGQGTLVTVSS
VL: DIQMTQSPSSLSASVGDRVTITCRVSENIYSNLAWYQQKPGKAPKLLIYEATNLAEGVPSRFSGSGSGTDFTLTISSLQPEDFATYYCQHFWGTPYTFGQGTKLEIK
For the molecule B2, the EC50 of luciferase production, Jurkat-NFAT-luc-hCD112R reporter cells with CHO-OKT3scFv hCD112 cells in experiment [6] came out at 0.69 µg/mL.

B3: S67P (Fc fusion, human, UniProt Q6DKI7 42-172, looked up)
Fc fusion chain: PEVWVQVRMEATELSSFTIRCGFLGPGSISLVTVSWGGPNGAGGTTLAVLHPERGIRQWAPARQARWETQSSISLILEGSGASSPCANTTFCCKFASFPEGSWEACGSLPPSSDPGLSAPPTPAPILRADL
notes: extracellular domain, amino acids 42-172; also called hCD112R-ECD-mFc S67P variant
On to B3, for which the binding result in experiment [7] is reported as “binds”.

B4: L72A (Fc fusion, human, UniProt Q6DKI7 42-172, looked up)
Fc fusion chain: PEVWVQVRMEATELSSFTIRCGFLGSGSISAVTVSWGGPNGAGGTTLAVLHPERGIRQWAPARQARWETQSSISLILEGSGASSPCANTTFCCKFASFPEGSWEACGSLPPSSDPGLSAPPTPAPILRADL
notes: extracellular domain, amino acids 42-172; alanine-scanning variant; also called hCD112R-ECD-mFc L72A variant
With B4, the binding result in experiment [8] is reported as “no binding”.

B5: hCD112R-ECD-mFc WT (Fc fusion, human, UniProt Q6DKI7 42-172, looked up)
chain: PEVWVQVRMEATELSSFTIRCGFLGSGSISLVTVSWGGPNGAGGTTLAVLHPERGIRQWAPARQARWETQSSISLILEGSGASSPCANTTFCCKFASFPEGSWEACGSLPPSSDPGLSAPPTPAPILRADL
notes: range 42-172; also called WT hCD112R; wildtype (WT) hCD112R protein; not shown: Fc domain of mouse IgG2a
On to B5, for which, in experiment [9], the Kd is 64.3 nM, the koff was found to be 0.00514 s⁻¹ and the kon stood at 80000 M⁻¹ s⁻¹.

B6: E94A (Fc fusion, human, UniProt Q6DKI7 42-172, looked up)
Fc fusion chain: PEVWVQVRMEATELSSFTIRCGFLGSGSISLVTVSWGGPNGAGGTTLAVLHPARGIRQWAPARQARWETQSSISLILEGSGASSPCANTTFCCKFASFPEGSWEACGSLPPSSDPGLSAPPTPAPILRADL
notes: extracellular domain, amino acids 42-172; alanine-scanning variant; also called hCD112R-ECD-mFc E94A variant
In [10], B6 yielded a Kd of 112 nM, a koff of 0.0126 s⁻¹ and a kon of 112000 M⁻¹ s⁻¹.

B7: H92A (Fc fusion, human, UniProt Q6DKI7 42-172, looked up)
Fc fusion chain: PEVWVQVRMEATELSSFTIRCGFLGSGSISLVTVSWGGPNGAGGTTLAVLAPERGIRQWAPARQARWETQSSISLILEGSGASSPCANTTFCCKFASFPEGSWEACGSLPPSSDPGLSAPPTPAPILRADL
notes: extracellular domain, amino acids 42-172; alanine-scanning variant; also called hCD112R-ECD-mFc H92A variant
As to B7, in [10], the Kd amounted to 72.1 nM, the koff was found to be 0.00532 s⁻¹ and the kon was determined as 73700 M⁻¹ s⁻¹.
